The assay concerns the target SARS-CoV-2 spike protein receptor binding domain, Delta variant subvariant Δ1 (B.1.617.2) (UniProt P0DTC2). In words: BLI. The note with it: parent: 168.4.

Regarding ab8 nanobody, wild type E127W, the Kd is 0.59 nM.

The record behind these values is article PMC11481066.
